Source: article PMC7608815

Experiments:
purified protein [1] = substrate: COC(=O)c1cccc(O)c1N; test: purified protein; format: biochemical, Solanum lycopersicum; settings: 200 or 500 uM p-coumaroyl-CoA, 30 C, aminoacylation (amide synthesis)
purified protein [2] = substrate: CC(C)(COP(=O)(O)OP(=O)(O)OC[C@H]1O[C@@H](n2cnc3c(N)ncnc32)[C@H](O)[C@@H]1OP(=O)(O)O)[C@@H](O)C(=O)NCCC(=O)NCCSC(=O)CC(=O)O; test: purified protein; settings: 200 uM p-coumaroyl-CoA, 30 C, 120 nM enzyme

B1: SlCHS (Solanum lycopersicum) (protein)
chain: MVTVEEYRKAQRAEGPATILAIGTSTPSNCVDQSTYPDYYFRITNSEHKTELKEKFKRMCDKSMIKKRYMHLTEEILKENPNMCAYMAPSLDARQDIVVVEVPKLGKRGTQKAIKEWGQPKSKITHLVFCTTSGVDMPACDYQLAKLLPVRPSVKRLMMYQQGCFAGGTVLRLAKDLAENNKGARVLVVCSEITAVTFRGPSESHLDSLVGQALFGDGAAAIIIGSDPIIGVERPLFELVSAAQTLVPDSEGAIDGHLREVGLTFHLLKDVPGLISKNIEKSLLEAFQPLGISDWNSLFWIAHPGGPAILDQVELKLGLKPEKLRATREVLSNYGNMSSACVLFILDEMRKASTKEGLGTTGEGLEWGVLFGFGPGLTVETVVLHSVAA
B1 gave a Km (purified protein [1]) of 3060 µM, a kcat (purified protein [1]) of 0.00603 s⁻¹ and a Km (purified protein [2]) of 21.34 µM. For the same protein, the kcat (purified protein [2]) was 0.00157 s⁻¹.
